Reference: publication PMC10397247

Assays:
Assay in all cases: two-hybrid library CCmax;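 also: natural log of median RNA to DNA barcode read ratio; higher means stronger binding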
[1] = target: T1, APC2811-AA; settings: mean of both orientations
T1 chain: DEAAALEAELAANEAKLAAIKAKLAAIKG

[2] = target: T2, APC9141-AA; settings: mean of both orientations
T2 chain: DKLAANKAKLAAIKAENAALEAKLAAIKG

[3] = target: T3, APC3881-AA; settings: mean of both orientations
T3 chain: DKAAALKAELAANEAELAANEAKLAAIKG

[4] = target: T4, APC3323-AA; settings: mean of both orientations
T4 chain: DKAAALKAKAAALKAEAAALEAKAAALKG

[5] = target: T5, APC5531-AA; settings: mean of both orientations
T5 chain: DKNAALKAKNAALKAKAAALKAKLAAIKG

[6] = target: T6, APC9806-AA; settings: mean of both orientations
T6 chain: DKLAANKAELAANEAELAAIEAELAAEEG

[7] = target: T7, APC3354-AA; settings: mean of both orientations
T7 chain: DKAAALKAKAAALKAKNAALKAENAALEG

[8] = target: T8, APC2724-AA; settings: mean of both orientations
T8 chain: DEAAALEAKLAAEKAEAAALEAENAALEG

[9] = target: T9, APC8401-AA; settings: mean of both orientations
T9 chain: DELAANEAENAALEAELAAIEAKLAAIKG

[10] = target: T10, APC7524-AA; settings: mean of both orientations
T10 chain: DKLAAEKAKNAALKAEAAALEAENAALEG

[11] = target: T11, APC542-AA; settings: mean of both orientations
T11 chain: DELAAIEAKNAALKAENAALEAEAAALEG

[12] = target: T12, APC9291-AA; settings: mean of both orientations
T12 chain: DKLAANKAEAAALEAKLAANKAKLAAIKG

[13] = target: T13, APC4336-AA; settings: mean of both orientations
T13 chain: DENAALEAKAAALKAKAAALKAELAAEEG

[14] = target: T14, APC3265-AA; settings: mean of both orientations
T14 chain: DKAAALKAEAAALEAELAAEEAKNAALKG

[15] = target: T15, APC9182-AA; settings: mean of both orientations
T15 chain: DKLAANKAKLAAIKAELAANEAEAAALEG

[16] = target: T16, APC2556-AA; settings: mean of both orientations
T16 chain: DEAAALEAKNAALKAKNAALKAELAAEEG

[17] = target: T17, APC2474-AA
T17 chain: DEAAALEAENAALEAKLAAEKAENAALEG

[18] = target: T18, APC4100-AA; settings: mean of both orientations
T18 chain: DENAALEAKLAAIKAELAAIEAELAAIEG

[19] = target: T19, APC2543-AA; settings: mean of both orientations
T19 chain: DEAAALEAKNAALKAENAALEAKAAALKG

[20] = target: T20, APC5009-AA; settings: mean of both orientations
T20 chain: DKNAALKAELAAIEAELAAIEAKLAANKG

[21] = target: T21, APC8516-AA; settings: mean of both orientations
T21 chain: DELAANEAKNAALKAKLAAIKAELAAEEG

[22] = target: T22, APC6088-AA; settings: mean of both orientations
T22 chain: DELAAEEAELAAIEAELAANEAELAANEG

[23] = target: T23, APC2981-AA; settings: mean of both orientations
T23 chain: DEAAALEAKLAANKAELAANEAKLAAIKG

interaction score [1]: -1.58
interaction score [2]: -2.1
interaction score [3]: -1.83
interaction score [4]: -1.45
interaction score [5]: -1.71
interaction score [6]: -1.64
interaction score [7]: -1.35
interaction score [8]: -1.93
interaction score [9]: -1.53
interaction score [10]: -2.27
interaction score [11]: -1.4
interaction score [12]: -1.71
interaction score [13]: -1.67
interaction score [14]: -1.52
interaction score [15]: -1.69
interaction score [16]: -1.49
interaction score [17]: -1.69
interaction score [18]: -1.97
interaction score [19]: -1.61
interaction score [20]: -1.39
interaction score [21]: -1.93
interaction score [22]: -1.54
interaction score [23]: -1.45
Binder: DEAAALEAENAALEAKLAAEKAENAALEG [APC2474-AA]
